Experimental data from IntAct's records for PubMed 19617557.

B1: Gamma-aminobutyric acid receptor subunit beta-3 (Rattus norvegicus (Rat)), P63079 (parent)
chain: MWGFAGGRLFGIFSAPVLVAVVCCAQSVNDPGNMSFVKETVDKLLKGYDIRLRPDFGGPPVCVGMNIDIASIDMVSEVNMDYTLTMYFQQYWRDKRLAYSGIPLNLTLDNRVADQLWVPDTYFLNDKKSFVHGVTVKNRMIRLHPDGTVLYGLRITTTAACMMDLRRYPLDEQNCTLEIESYGYTTDDIEFYWRGGDKAVTGVERIELPQFSIVEHRLVSRNVVFATGAYPRLSLSFRLKRNIGYFILQTYMPSILITILSWVSFWINYDASAARVALGITTVLTMTTINTHLRETLPKIPYVKAIDMYLMGCFVFVFLALLEYAFVNYIFFGRGPQRQKKLAEKTAKAKNDRSKSEINRVDAHGNILLAPMDVHNEMNEVAGSVGDTRNSAISFDNSGIQYRKQSMPKEGHGRYMGDRSIPHKKTHLRRRSSQLKIKIPDLTDVNAIDRWSRIVFPFTFSLFNLVYWLYYVN

Variants of: B1
Conditions: with ap2m1_rat Ap2m1, P84092
Sequence of ap2m1_rat Ap2m1, P84092 (P84092 whole entry): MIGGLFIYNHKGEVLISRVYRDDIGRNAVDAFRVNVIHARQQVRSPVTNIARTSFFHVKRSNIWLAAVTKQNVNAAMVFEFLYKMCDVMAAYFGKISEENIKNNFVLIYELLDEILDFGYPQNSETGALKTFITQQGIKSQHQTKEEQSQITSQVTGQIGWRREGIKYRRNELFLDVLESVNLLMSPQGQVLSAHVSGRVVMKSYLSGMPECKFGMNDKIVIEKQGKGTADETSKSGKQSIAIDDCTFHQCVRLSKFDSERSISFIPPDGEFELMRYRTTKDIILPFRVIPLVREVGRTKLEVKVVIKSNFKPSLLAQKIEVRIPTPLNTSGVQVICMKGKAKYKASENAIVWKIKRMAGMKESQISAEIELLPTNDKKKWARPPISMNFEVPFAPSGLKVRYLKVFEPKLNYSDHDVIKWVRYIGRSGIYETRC

effect of a mutation on the interaction | Variant
decreasing interaction strength | MWGFAGGRLFGIFSAPVLVAVVCCAQSVNDPGNMSFVKETVDKLLKGYDIRLRPDFGGPPVCVGMNIDIASIDMVSEVNMDYTLTMYFQQYWRDKRLAYSGIPLNLTLDNRVADQLWVPDTYFLNDKKSFVHGVTVKNRMIRLHPDGTVLYGLRITTTAACMMDLRRYPLDEQNCTLEIESYGYTTDDIEFYWRGGDKAVTGVERIELPQFSIVEHRLVSRNVVFATGAYPRLSLSFRLKRNIGYFILQTYMPSILITILSWVSFWINYDASAARVALGITTVLTMTTINTHLRETLPKIPYVKAIDMYLMGCFVFVFLALLEYAFVNYIFFGRGPQRQKKLAEKTAKAKNDRSKSEINRVDAHGNILLAPMDVHNEMNEVAGSVGDTRNSAISFDNSGIQYRKQSMPKEGHGRYMGDRSIPHKKTHLRRRAAQLKIKIPDLTDVNAIDRWSRIVFPFTFSLFNLVYWLYYVN [S432A;S433A]
